Experimental data taken from the nanobody polyreactivity screen of Harvey et al. (2022).

Assay: yeast display, Sf9 membrane polyspecificity reagent, FACS + sequencing; frameworks hold sequencing errors
Summary of the method: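 A nanobody's polyreactivity label depends on the gate it was sorted from. Yeast display cells were stained with 10% biotinylated, detergent-solubilized Sf9 membrane reagent for 1 hour at 4 °C, enriched on streptavidin microbeads and sorted by FACS. The low and high (top ~1%) gates were set on anti-HA fluorescence for expression and streptavidin fluorescence for reagent binding.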

Sequence	polyreactivity (PSR sort gate)
QVQLVESGGGLFQAGGSLRLSCAASGRTFRTNAMGWYRQAPGKERELVAAITRSGGSTYADSVKGRFTISRDNAKNTVYLQMNSLKPEDTAVYYCATTRDWVYNYWGQGTQVTVSS	low polyreactivity
QVQLVESGGGLVQAGGSLRLSCAASRSTFAYYSMGWYRKEPGKETELVAAITRGGSTNYADSVKGRFRISRDNAKNTVLLQMNSLKPEDTAVYYCAAGDVQDYEYDYLGQGTQVTVSS	low polyreactivity
QVQLLESGGGLVQPGGSLRLSCAASGRTFRLNGMGWNRQAPGKERELVAAITWSGGRTYYADSVKGRFTISRDNAKKTVYVQMNSLTPEDTAVYYCAADFRDGFTSRYGYWGQGTQVTVSS	high polyreactivity
QVQLVESGGGLVQAGGSLRLSCAASGSTFGYYAMGWYRQAPGRERELVAAISYRSGSTYYADSVKGRFTISRDNAKNTVYLQMNSLKPEDTAVYYCAARFGRGSRYYYWGQGTQVTVSS	high polyreactivity
QVQLVESGGGLVQAGGSLRLTCAASGSIFYFNTMGWYRQAPGKERELVAVISRRGGSTYYADSVKGRFTISRDNAKNTVYLQMNSLKPEDTAVYYCNAEVFDLWRSFLSPYEYWGQGTQVTVSS	low polyreactivity
QVQLVESGGGLVQAGGSLRLRCAASGSIFYRNAMGWNRQAPGKERELVSANTRTGGSTYYADSVQARFTISRDNAKNTVYLQMNSLKPEDTAVYYCPAETWYRWPRSAWRFDYWGQGTQVNVSS	high polyreactivity
QVQLVESGGALVQAGGSLRLSCAASGYTFSKYAMGWYRQAPGKERELVAAISKRGGSTSYADSVKGRFTISRDNAKNTVYLQMNILKPEDTAVYYCNAREWSRTFDYWGQGSQVTVSS	high polyreactivity
QVQLVESGGGLVQAGGSLRLSCAASGRIFGRYAMGWYRQAPGKERELVAVISSGGSTYYADSVKGRFTISRDNAKNTVYLQMNSLKPDDTAVYYCAAVIRGGYDYWGQGTQVTVSS	low polyreactivity
QVQLVESGGGLVQAGGSLRLSCAASGSIFVWNDMGWYRQAPGKERELVASIRSGVSTYYADSVKGRFTISRDNAKNTVYLQMNSLKPEDTAVYYCAKKGPIHYIYDSWGQGTQVTVSS	low polyreactivity
QVQLVESAAGLVQAGASHRLSCAPSGRIFVNYAMGGYRQAPGKERELVAAITSDGSTSYADSVKGRFTISRDNAKNTVYLQMNSLKPEDSADYYCAKDFFEHSPVSLTYSSSKYDYWGQGTQVTVSS	low polyreactivity
QVQLQESGGGLMQAGGNLRLSCAASGYISTHYDMDWSRQAPGKERELVARIDDGAITNYADSVKGRFTISRDNATNTVYLQMNSLKPEDTAVYYCAVYSGDDYYHDYWGQGTQVTVSS	low polyreactivity
QVQLVESGGGLVQAGGSLRLSCAASGRTFTSYAMGWYRQAPGKERELVAAISQGGGRTYYADSVKGRFTISRDNAKNTVYLQMNSLKPEDTAVYYCNARSLYPWRWKKEYGHWGQGTQVTVSS	high polyreactivity
QVQLVESGGGLVQAGGSLRLSCAASGLTFYQYAMGWSRQAPGKERELVAAISKSAGSTYYADSVKGRFTISRDNAKNTVYLQMNSLKPEDTAVYYCAARVLRLRYDYWGQGTQVTVSS	high polyreactivity
KVQLVETGRGLVQAGGSLRISCAASGSTFGANAMVWYIQAPGKERELVAAITVRGGSTYYADSVKCRFTISRDNAKNNVYLQMISLKPEETAVYYCAARWACSTNSYYYWGQGTQVTVSS	high polyreactivity
QVQLVESGGGLVQAGGSLRLSCAASGSTFNDYTMGWYRQAPGKERELVAAITDSGGSTYYADSVKGRFTISRDNAKNTVYLQMNSLKPEDTAVYYCAAAVPELYEVRYHDDYWGQGTQVTVSS	low polyreactivity
QVQLVESGGGLVQAGGSLRLSCAASGSIFTYYAMGWYRQAPGKERELVAGISGGGRTNYADSVKGRFTISRDNAKNTVYLQMNSLKPEDTAVFYCAADWSFSTIRYWRFDSDYWGQGTQVTVSS	high polyreactivity

Sequence	polyreactivity (PSR sort gate)
QVQLVESGGGLVQAGGSLRLSCAASGRIFPLYAMGWYRQAPGKERELVAAITSSGGSTYYADSVKGRFTISRDNAKNTVYLQMNSLKPEDTAVYYCADEGYYSNYHYWGQGTQVTVSS	low polyreactivity
QVQLVESGGGLVQAGGSLRLSCAATGSIIQWNAMGWYRQAPGKERELVAAISWSGTRTYFADSVKGRFTISRDNAKNTVYLQMNSLKPEDTAVYYCAFRGGKPTYRYDYWGQGTQVTVSS	high polyreactivity
QVQLVESGGGLFQAGGSLRLSCAASGRIFWNYAMGWYRQAPGKERELVASINWSGGSTYYADSVKGRFTISRDNAKNTVYLQMNSLKPEDTAVYYCNKDGRVYLDHDYWGQGTQVTVSS	low polyreactivity
QVQLVESGGGLVQAGGSLRLSCAASGSIFDYYAMGWYRQAPGKERELVAAISRSGSRTYYADSVKGRFTISRDNAKNTVYLQMNSLKPEDTAVYYCNAYLTLPYSNHAYYYWGQGTQVTVSS	high polyreactivity
QVQLVESGGGLDQAGGSLRLSCAASGITFVWNAMGWYRQAPGKERELVATISRGGVRTYYADSVKGRFTISRDNAKNTVYLQMNSLKPEDTAVYYCNKTTLLTVEYDYWGQGTQLTVSS	low polyreactivity
QVQLVESGGGLVQAGGSLRLSCAASGRIFDYYAMGWYRQAPGKERELVAAISSSVGNTYYADSVKGRFTISRDNAKNSVYLQINSLKQEDTAVYYCADYSYVRSSYEVEYDYWGQGTQVTVSS	low polyreactivity
QVQLVESGGGLVQAGGSLSLSCAASGRIFSWYDMGWYRQAPGKERELVAAISSGGSTKYADSVKGRFTISRDNAKNTVYLQMNCLKPEDTAVYYCAARLPRRYTREGYWGQGTQVSVSS	high polyreactivity
QVQLVESGGGLVQAGGSLRLSCASSGFTFYIYVMGWYRQAPGKEREWVAAISSRGGSTYYADSVKGRFTISRDNAKNTVNSQMNSLKPEDTAVYYCNAVHYVLYGDYDYWGQGTQVTVSS	high polyreactivity
QVQLVESGGGLVQAGGSLRISCAASGFTFYTNAMGWYIQAPGKERELVAAISSGGSTNYADSVKGRFTISRDNAKNTVYLQMNSLQPEDSAVYYCAARRGYWGQGTQVTVSS	high polyreactivity
QVKLVESGRGLVQAGGSLRISCDASGSIFYYYAMGWYRQAPGKERELVAAINGGDTNYADSVKGRFTISRDNAKNTVYLQMTSLKPEDTAVYYCAAEGVTVEWDYDYWGQATQVTVSS	low polyreactivity
QVQLVESGGGLVQAGGSLRLSCAASGSTFKRNAMGWYRQAPVKERELVATITRRGGSTYADSVKGRFTISRDNAKNTVYLQMNSLKAEDTAVYYCARDGFSGGMDYWGQGTQVTVSS	low polyreactivity
QVQLVESGGGLVQAGGSLRLSCAASGRTFLYYTMGWYRQAPGKERELVAVISIEGGGTYADSVKGRFTISRDNAKNTVYLQMNSLKPEDTAVYYCAVDALSITYGYWGQGTQVNVSS	low polyreactivity
QVQLVESGGGLVQAGGSLRLTCAASGLTFYFYTMGWYRQAPGKERELVAAIRSAGRTNYADSVKGRFTISRDNAKNTVYLQMNSLKPEDTAVYYCAAISPGYYRIVWYDYWGQGTQVTVSS	high polyreactivity
QVQLVESGGGLVQAGVSLRVSCAASGRTFSRYTMGWYRQAPGKEREMVAAISKRGGSTYYADSVKGRFTISRDNAKNTVYLQRNSLKPEETAVYYCNAYGLVGLVGVIMYYWGQGTQVTVSS	high polyreactivity
QVQLVESGGGLVQAGGSLRLSCAASGLIFYDNMGWYRQAPGKERELVAAISSSGGSTNYADSVKGRFTISRDNAKNTVYLQMNSLKPEDTAVYYCAADSYPAYLGFVGFDYWGQGTQVTVSS	low polyreactivity
QVQLVESGGGLVQAGGSLRLSCAASGSTFSTYAMGWYRQAPGKERELVASISGRGSSTDYADSVKGRFTISRDNAKNTVYLQMNSLKPEDTAVYYCNRRGYRTSTTYRRYNYWGQGTQVTVSS	high polyreactivity
